These are literature values, as cited in patent publication US9060935B2, “Pharmaceutical lipid compositions” (CAMURUS AB, priority 2005, dated 2015).

The conditions of data set [1]: native GLP-1.
The conditions of data set [2]: room temperature.

For “GLP-1: native glucoregulatory hormone, 37-amino acid peptide with a MW of 4.2 KDa”, the plasma half-life entry in data set [1] is “below 2 minutes”.
In the case of `CCCCCCCC/C=C\CCCCCCCC(=O)OCC(O)CO` (centres unmarked) [GMO, glycerol monooleate], the equilibrium water solubility in data set [2] was ~10^−7 M.
